Patent US20130315928A1

Assays:
[1] = molecular target: equine choriogonadotropin (eCG) or PMSG (equine) (UniProt P01220); experiment: ELISA on commercial eCG, antibody at 1 µg/ml
[2] = molecular target: equine choriogonadotropin (eCG) or PMSG (equine) (UniProt P01220); experiment: ELISA on commercial eCG, antibody at 10 µg/ml

Chain of equine choriogonadotropin (eCG) or PMSG (equine) (P01220 25-120 limits assumed, chain 1 of 2): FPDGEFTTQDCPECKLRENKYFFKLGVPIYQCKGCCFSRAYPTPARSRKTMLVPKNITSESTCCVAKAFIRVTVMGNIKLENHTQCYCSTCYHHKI
Chain of equine choriogonadotropin (eCG) or PMSG (equine) (P08751 21-169 limits assumed, chain 2 of 2, further chain): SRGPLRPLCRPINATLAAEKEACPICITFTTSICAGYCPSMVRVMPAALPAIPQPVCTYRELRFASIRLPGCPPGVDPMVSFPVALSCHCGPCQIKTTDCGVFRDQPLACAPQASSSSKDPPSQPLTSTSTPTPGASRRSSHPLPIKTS

## isotypic control (IgM directed against another type of antigen very remote from the gonadotropic hormones) (antibody)
[1]
  OD: 0.09 OD
[2]
  OD: 0.09 OD
